Source: US12042530B2, “Target peptides for immunotherapy and diagnostics” (University of Virginia Patent Foundation, priority 2012, dated 2024)
Non-standard residues stand in square brackets, D forms with d. Residues, ends and D or L forms follow the SMILES beside them. No end group written: not given here. pT = C[C@@H](OP(=O)(O)O)[C@H](N)C(=O)O; pS = N[C@@H](COP(=O)(O)O)C(=O)O

Experiments:
[1] = target: T1, HLA-A*0201 (HLA-A2) peptide complexes (Homo sapiens, UniProt P04439, D140Y/D185E/D98H/E176V/E277Q/G131W/G231S/I119V/I121R/I166T/I218V/L300P/L318F/N151K/N90K/P208A/P217A/Q86G/Q94H/R138H/R169H/T345S); test: HLA-A*0201 phosphopeptides associated with leukemia samples (isolation of HLA-associated peptides); conditions: for Copies/cell class, JY: EBV transformed B lymphoblastoid cell line JY; for Copies/cell class, AML1: acute myeloid leukemia sample AML1; for Copies/cell class, CLL1: chronic lymphocytic leukemia sample CLL1; for Copies/cell class, B Cell: healthy B cells; for Copies/cell class, T Cell: healthy T cells; for Copies/cell class, MCL: mantle cell lymphoma sample
T1 construct: endogenous in cells; host or cells: JY B-lymphoblastoid line; primary CLL, MCL, AML, ALL samples; healthy splenic T and B cells
Text: To identify naturally processed tumor-associated phosphopeptides, HLA-A*0201 (HLA-A2) and HLA-B*0702 (HLA-B7) peptide complexes from four (4) chronic lymphocytic leukemia (CLL) tumor samples, a mantle cell lymphoma sample (MCL), one acute lymphoblastic leukemia (ALL), and an acute myeloid leukemia (AML) sample, in addition to healthy splenic T and B-cells and the cultured lymphoblastoid cell line JY were isolated. These efforts yielded 10 HLA-A2-restricted and 86 HLA-B7-restricted phosphopeptide antigens (see Tables 6 and 7).
All cell lines were grown at 37° C. with 5% CO2 in growth medium consisting of RPMI 1640 supplemented with 10% FCS and two mM L-glutamine. Blood or leukapheresis samples were taken from patients with high-burden leukemia in heparin. Tumor cells were recovered by layering the blood over density gradient (Ficoll) and collecting the tumor layer following centrifugation. The tumor was washed in tris-buffered saline (TBS). The purity of the tumor was assessed using flow cytometry and was >98% pure in all cases. For healthy T and B-cell populations, a normal spleen sample processed and tonsil sample was collected and lymphocytes released through mechanical disruption. Mononuclear cells were isolated using a density gradient and 10^9 T cells isolated using anti-CD19 or anti-CD3 microbeads (Miltenyi Biotec Inc., Auburn, California, United States of America) with purity >98% were obtained. Bone marrow sample was obtained from an elective orthopedic procedure and red cell-depleted using hypotonic lysis. This sample was not processed further.
Class I MHC molecules were immunoaffinity purified from the JY cell line or from primary tumor samples, and their associated peptides were extracted as previously described in Zarling et al., 2006. Approximately 1.2-14×10^9 cells were lysed in a solution containing 20 mM Tris-HCl (pH 8.0), 150 mM NaCl, 1% CHAPS, one mM PMSF, five μg/mL aprotinin, 10 μg/mL leupeptin, 10 μg/mL pepstatin A, 1 μg/ml calyculin A, and phosphatase inhibitor (cocktails I and II; Sigma-Aldrich). The mixture was subjected to centrifugation and the resulting supernatant was passed over protein A sepharose pre-loaded with the HLA-A2-specific antibody BB7.2 or HLA-B7-specific antibody MEL Peptides were eluted from the purified class I MHC molecules with 10% acetic acid.

melanoma cells = test: T cell recognition of GSK-3β- and proteasome-inhibited melanoma cells; format: cell-based, human
Method: Surface peptide-MHC complexes were denatured from the cells using a mild acid buffer as previously described (Robila et al., 2008) and then allowed to re-express peptide-MHC molecules in the presence of BIO, MeBIO, or 5 μM lactacystin for 12 hours. T cell recognition of the cells was evaluated after 5 hours incubation with pS33-βcat-specific T cells.

phosphoS33-β-catenin = test: Western blot of phosphoS33-β-catenin and β-catenin; format: cell-based, human; conditions: BIO in the presence of lactacystin
Method: Lysates were prepared from ˜80% confluent cells in buffer containing 2% Triton X 100 and protease and phosphatase inhibitors. Samples were separated on 8% SDS-PAGE (Thermo Fischer Scientific Inc., Waltham, Massachusetts, United States of America) and transferred to PVDF membranes (Millipore Immobilon-FL, 0.45 μm; Millipore Corporation, Billerica, Massachusetts, United States of America). Blots were probed with phosphoS33-β-catenin, β-catenin, and GAPDH antibodies overnight at 4° C. and developed by enhanced chemiluminescence (Millipore). Films were scanned and integrated density values determined using AlphaEase software and normalized to values obtained for GAPDH. In some cases, GSK-3 activity was inhibited using 5 μg BIO ((2′Z, 3′E)-6-Bromoindirubin-3′-oxime) and proteasomal degradation was blocked with 10 μg lactacystin (Calbiochem) before cells were lysed.

HLA A*0201 [2] = target: T2, HLA A*0201 (Homo sapiens, UniProt P04439, D140Y/D185E/D98H/E176V/E277Q/G131W/G231S/I119V/I121R/I166T/I218V/L300P/L318F/N151K/N90K/P208A/P217A/Q86G/Q94H/R138H/R169H/T345S); test: HLA-A*0201 peptide-binding competition assay; conditions: for IC50: FIG. 2F, three independent experiments, triplicate wells, read-out: IC50, competition with a standard peptide for HLA-A2 binding (converted)
Method: Affinity purified HLA-A*0201 was incubated with iodinated peptide […] (SEQ ID NO: 2379), graded doses of test peptides, and β2M as previously described (Zarling et al., 2000). Peptide-MHC complexes were captured in W6/32-coated ELISA plates after 48 hours and the dose at which test peptides inhibited binding of the indicator peptide by 50% (IC50) was calculated.

PBMCs = test: Memory T cell response, IFNγ ELISpot, healthy A2 positive donors; format: cell-based, human; conditions: for Day 7 ELISpot, donor alpha: healthy A2 positive donor alpha; for Day 7 ELISpot, donor beta: healthy A2 positive donor beta; for Memory T cell response, in words: healthy donors / patient; for Day 7 ELISpot, donor one: healthy A2 positive donor one
HLA A*0201 [3] = target: T2, HLA A*0201; test: Binding to HLA A*0201 (statement)
CD8+ T cells = test: ELISpot T cell recognition assay, healthy donors, leukemia-associated phosphopeptides; format: cell-based, human; conditions: 10 HLA-A2+ and 10 HLA-B7+ healthy individuals, 7 day cultures
Method: Immunity against 76 HLA-B7 and 10 HLA-A2 leukemia-associated phosphopeptide antigens was assessed in 10 HLA-A2^+ and 10 HLA-B7^+ healthy individuals (see FIG. 12A).
For ELISpot analysis, PBMCs and CD8^+ T cells were isolated fresh from healthy donors and patients. 1×10^6 PBMCs were isolated from both AML patients and healthy donors and resuspended in AIM-V media (10% human AB serum) in a 96 well plate. Peptide or phosphopeptides were added individually at 10 μg/ml and placed at 37° C. in CO2 incubator for 7 days. Cells were then harvested, washed 4 times, and re-challenged with phosphopeptides, peptides, or anti-CD3 (OKT3, 100 ng/ml, Mabtech, Inc., Mariemont, Ohio, United States of America) as per the manufacturer's instructions. Individual cytokine-producing cells were identified as dark spots after a 15 minute reaction with 5-bromo-4-chloro-3-indolyl phosphate and NBT by means of an alkaline phosphatase conjugate substrate (Mabtech).

HLA A*0301 = HLA A*0301 (Homo sapiens, UniProt P04439); test: Binding to HLA A*0301 (statement)

459 (RVASPTSGV; SITE (1)..(109: One or more of the listed amino acids can be phosphorylated as set forth in the Tables; listed as Homo sapiens) [compound 459]
Copies/cell class, CLL2 [1]: 1 (1 indicates <1 copy/cell)
Copies/cell class, CLL3 [1]: 0
Copies/cell class, CLL4 [1]: 0
Copies/cell class, JY [1]: 0
Copies/cell class, AML1 [1]: 0
Copies/cell class, CLL1 [1]: 1 (1 indicates <1 copy/cell)
Copies/cell class, B Cell [1]: 0
Copies/cell class, T Cell [1]: 0
Copies/cell class, MCL [1]: 1 (1 indicates <1 copy/cell)

460 (SMTRSPPRV; SITE (1)..(9): One or more of the listed amino acids can be phosphorylated as set forth in the Tables; listed as Homo sapiens) [compound 460]
Copies/cell class, CLL2 [1]: 0
Copies/cell class, CLL3 [1]: 1 (1 indicates <1 copy/cell)
Copies/cell class, CLL4 [1]: 0
Copies/cell class, JY [1]: 0
Copies/cell class, AML1 [1]: 0
Copies/cell class, CLL1 [1]: 0
Copies/cell class, B Cell [1]: 0
Copies/cell class, T Cell [1]: 0
Copies/cell class, MCL [1]: 0

464 (VMIGSPKKV; SITE (1)..(9): One or more of the listed amino acids can be phosphorylated as set forth in the Tables; listed as Homo sapiens) [compound 464]
Copies/cell class, CLL2 [1]: 0
Copies/cell class, CLL3 [1]: 0
Copies/cell class, CLL4 [1]: 0
Copies/cell class, JY [1]: 0
Copies/cell class, AML1 [1]: 0
Copies/cell class, CLL1 [1]: 0
Copies/cell class, B Cell [1]: 0
Copies/cell class, T Cell [1]: 0
Copies/cell class, MCL [1]: 1 (1 indicates <1 copy/cell)

O=C1Nc2cc(Br)ccc2/C1=C1/Nc2ccccc2/C1=N\O [BIO, (2′Z, 3′E)-6-Bromoindirubin-3′-oxime]
pS33-βcat-specific T cell recognition of melanoma cells (melanoma cells; DM331 and SLM2, re-expression of peptide-MHC in presence of inhibitor (5 μM)): completely abrogated recognition of melanoma cells
T cell recognition of Tyr369 (melanoma cells; control epitope): unaffected
Amount of phosphoS33-β-catenin in melanoma cells (phosphoS33-β-catenin): significantly diminished

CC[C@H](C)[C@H](NC(=O)CNC(=O)[C@H](COP(=O)(O)O)NC(=O)[C@H](CC(=O)O)NC(=O)[C@H](CC(C)C)NC(=O)[C@@H](N)Cc1ccc(O)cc1)C(=O)N[C@@H](Cc1c[nH]cn1)C(=O)N[C@@H](CO)C(=O)NCC(=O)N[C@@H](C)C(=O)O [SEQ ID NO: 427, YLD(pS)GIHSGA] (H-YLD[pS]GIHSGA-OH)
IC50 (HLA A*0201 [2]): 298 nM

CC[C@H](C)[C@H](NC(=O)CNC(=O)[C@H](COP(=O)(O)O)NC(=O)[C@H](CC(=O)O)NC(=O)[C@H](CC(C)C)NC(=O)[C@@H](N)Cc1ccc(O)cc1)C(=O)N[C@@H](Cc1c[nH]cn1)C(=O)N[C@@H](CO)C(=O)NCC(=O)N[C@H](C(=O)O)C(C)C [SEQ ID NO: 2080, YLDsGIHSGV] (H-YLD[pS]GIHSGV-OH)
IC50 (HLA A*0201 [2]): 36.4 nM

CC[C@H](C)[C@H](NC(=O)CNC(=O)[C@H](COP(=O)(O)O)NC(=O)[C@H](CC(=O)O)NC(=O)[C@H](CC(C)C)NC(=O)[C@@H](N)Cc1ccc(O)cc1)C(=O)N[C@@H](Cc1c[nH]cn1)C(=O)N[C@@H](COP(=O)(O)O)C(=O)NCC(=O)N[C@@H](C)C(=O)O [pS33/S37-βcat30] (H-YLD[pS]GIH[pS]GA-OH)
IC50 (HLA A*0201 [2]): 575 nM

APRRYsSSL (APRRY[pS]SSL; listed as Homo sapiens) [SEQ ID NO: 267]
Day 7 ELISpot, donor alpha (PBMCs): ++ (25-99 spots)
Day 7 ELISpot, donor beta (PBMCs): + (3-24 spots)
Memory T cell response, in words (PBMCs): Two healthy donors (HD) responded
Binding to HLA A*0201 (HLA A*0201 [3]): does not bind to A*0201

IMDRtPEKL (IMDR[pT]PEKL; listed as Homo sapiens) [SEQ ID NO: 398]
Day 7 ELISpot, donor alpha (PBMCs): +++ (>100 spots)
Day 7 ELISpot, donor one (PBMCs): + (3-24 spots)

KLIDRTE(pS)L (KLIDRTE[pS]L; listed as Homo sapiens) [SEQ ID NO: 440]
Immune response in healthy donors, in words (CD8+ T cells): not immunogenic

RQA(pS)IELPSM (RQA[pS]IELPSM; listed as Homo sapiens) [SEQ ID NO: 451]
Immune response in healthy donors, in words (CD8+ T cells): not immunogenic

RTFpSPTYGL (RTF[pS]PTYGL; listed as Homo sapiens) [SEQ ID NO: 457]
Day 7 ELISpot, donor one (PBMCs): + (3-24 spots)
Day 7 ELISpot, donor three (PBMCs; healthy A2 positive donor three): + (3-24 spots)

RVAsPTSGVK (RVA[pS]PTSGVK; listed as Homo sapiens) [SEQ ID NO: 65]
Binding to / presentation by HLA A*0301 (HLA A*0301): bind to HLA A*0301
Binding to HLA A*0201 (HLA A*0201 [3]): Neither of the A*0301 peptides bind to A*0201

RVAsPTSGVKR (RVA[pS]PTSGVKR; listed as Homo sapiens) [SEQ ID NO: 66]
Binding to / presentation by HLA A*0301 (HLA A*0301): bind to HLA A*0301
Binding to HLA A*0201 (HLA A*0201 [3]): Neither of the A*0301 peptides bind to A*0201

TPRVTGGGAM (Artificially synthesized cytomegalovirus peptide) [TPR (CMV), cytomegalovirus (CMV) peptide, reference compound]
Day 7 ELISpot, donor alpha (PBMCs): +++ (>100 spots)
Day 7 ELISpot, donor one (PBMCs): + (3-24 spots)

VMIGpSPKKV (VMIG[pS]PKKV; listed as Homo sapiens) [SEQ ID NO: 426]
Day 7 ELISpot, donor alpha (PBMCs): ++ (25-99 spots)
Day 7 ELISpot, donor beta (PBMCs): + (3-24 spots)
Day 7 ELISpot, donor one (PBMCs): ++ (25-99 spots)
Day 7 ELISpot, donor two (PBMCs; healthy A2 positive donor two): ++ (25-99 spots)

VMIGsPKKL
Memory T cell response, in words (PBMCs): strong phosphopeptide-specific memory T cell response
HLA-A*0201 (MHC) binding affinity, in words (HLA A*0201 [2]): weak MHC binding affinity
